For 23 molecules, EC50, IC50 and Kd results are on record in EP4703382A1 (Kanglitai Biomedical (Qingdao) Co., Ltd., dated 2026).

One may read the EC50 as the concentration needed to bring the measured effect to its halfway point. High values mean a less potent agent, low ones a more potent agent. For orientation: IC50 means the concentration that inhibits the measured activity by half. The term Kd denotes the free concentration of one partner at which half of the binding sites on the other are occupied at equilibrium, for simple one-to-one binding. A low value points to a tighter complex.

B1: PDL1-1v1 (VHH)
VHH: EVQLLESGGGLVQPGGSLRLSCAASGFTVSNSAVSWARQAPGKGLEWVSLIDSNRNTVYAQSVRGRFTISRDNSKNTVYLQMNSLRAEDTAVYYCAKGIWGSTLWGQGTTVTVSS
notes: Humanized PDL1-1, His-tagged, from 293-F
B2: PDL1-1v3 (VHH)
VHH: B1 VHH with E1Q
notes: Humanized PDL1-1, His-tagged
B3: PDL1-1v6 (VHH)
VHH: B1 VHH with R86K
notes: Humanized PDL1-1, His-tagged
B4: PDL1-1v10 (VHH)
VHH: B1 VHH with D52A
notes: Humanized PDL1-1, His-tagged
B5: PDL1-1v8 (VHH)
VHH: B1 VHH with W105T
notes: Humanized PDL1-1, His-tagged
B6: PDL1-1v18 (VHH)
VHH: B1 VHH with E1Q, L5V, Q13K, S74A, T77S, W105T
notes: Humanized PDL1-1, His-tagged
B7: PDL1-1v2 (VHH)
VHH: B1 VHH with E1Q, L5V, Q13K, S74A, T77S
notes: Humanized PDL1-1, His-tagged
B8: PDL1-1v12 (VHH)
VHH: B1 VHH with E1Q, L5V, S74A, T77S
notes: Humanized PDL1-1, His-tagged
B9: PDL1-1v13 (VHH)
VHH: B1 VHH with E1Q, L5V, Q13K, R19T, S74A, T77S
notes: Humanized PDL1-1, His-tagged
B10: PDL1-1v19 (VHH)
VHH: B1 VHH with E1Q, L5V, Q13K, S74A, T77S, T110Q
notes: Humanized PDL1-1, His-tagged
B11: PDL1-1v20 (VHH)
VHH: B1 VHH with E1Q, L5V, Q13K, D52A, S74A, T77S
notes: Humanized PDL1-1, His-tagged
B12: PDL1-1v17 (VHH)
VHH: B1 VHH with E1Q, L5V, Q13K, S74A, T77S, A87P
notes: Humanized PDL1-1, His-tagged
B13: PDL1-1v15 (VHH)
VHH: B1 VHH with E1Q, L5V, Q13K, S74A
notes: Humanized PDL1-1, His-tagged
B14: PDL1-1v11 (VHH)
VHH: B1 VHH with E1Q, L5Q, Q13K, S74A, T77S
notes: Humanized PDL1-1, His-tagged
B15: PDL1-1v14 (VHH)
VHH: B1 VHH with E1Q, L5V, Q13K, S74V, T77S
notes: Humanized PDL1-1, His-tagged
B16: PDL1-1v16 (VHH)
VHH: B1 VHH with E1Q, L5V, Q13K, S74A, T77S, R86K
notes: Humanized PDL1-1, His-tagged
B17: PDL1-1v7 (VHH)
VHH: B1 VHH with A87P
notes: Humanized PDL1-1, His-tagged
B18: PDL1-1v9 (VHH)
VHH: B1 VHH with T110Q
notes: Humanized PDL1-1, His-tagged
B19: PDL1-1v4 (VHH)
VHH: B1 VHH with L5Q
notes: Humanized PDL1-1, His-tagged
B20: Fusion 2 (other, murine)
chain 1: RVIPVSGPARCLSQSRNLLKTTDDMVKTAREKLKHYSCTAEDIDHEDITRDQTSTLKTCLPLELHKNESCLATRETSSTTRGSCLPPQKTSLMMTLCLGSIYEDLKMYQTEFQAINAALQNHNHQQIILDKGMLVAIDELMQSLNHNGETLRQKPPVGEADPYRVKMKLCILLHAFSTRVVTINRVMGYLSSAHHHHHH
chain 2: MWELEKDVYVVEVDWTPDAPGETVNLTCDTPEEDDITWTSDQRHGVIGSGKTLTITVKEFLDAGQYTCHKGGETLSHSHLLLHKKENGIWSTEILKNFKNKTFLKCEAPNYSGRFTCSWLVQRNMDLKFNIKSSSSSPDSRAVTCGMASLSAEKVTLDQRDYEKYSVSCQEDVTCPTAEETLPIELALEARQQNKYENYSTSFFIRDIIKPDPPKNLQMKPLKNSQVEVSWEYPDSWSTPHSYFSLKFFVRIQRKKEKMKETEEGCNQKGAFLVEKTSTEVQCKGGNVCVQAQDRYYNSSCSKWACVPCRVRSGGGGSGGGGSGGGGSQVQLQESGGGLVQPGGSLTLSCAASGFTVSNSAVSWARQAPGKGLEWVSLIDSNRNTVYAQSVRGRFTISRDNVKNTVYLQMNSLKPEDTAVYYCAKGIWGSTLTGQGTQVTVSS
notes: PDL1-1 nanobody fused with murine IL-12; two plasmids co-transfected 1:1; also called mP35-6his + mP40-P1
B21: Fusion 4 (other, murine)
chain 1: B20 chain 1
chain 2: QVQLQESGGGLVQPGGSLTLSCAASGFTVSNSAVSWARQAPGKGLEWVSLIDSNRNTVYAQSVRGRFTISRDNVKNTVYLQMNSLKPEDTAVYYCAKGIWGSTLTGQGTQVTVSSGGGGSGGGGSGGGGSMWELEKDVYVVEVDWTPDAPGETVNLTCDTPEEDDITWTSDQRHGVIGSGKTLTITVKEFLDAGQYTCHKGGETLSHSHLLLHKKENGIWSTEILKNFKNKTFLKCEAPNYSGRFTCSWLVQRNMDLKFNIKSSSSSPDSRAVTCGMASLSAEKVTLDQRDYEKYSVSCQEDVTCPTAEETLPIELALEARQQNKYENYSTSFFIRDIIKPDPPKNLQMKPLKNSQVEVSWEYPDSWSTPHSYFSLKFFVRIQRKKEKMKETEEGCNQKGAFLVEKTSTEVQCKGGNVCVQAQDRYYNSSCSKWACVPCRVRS
notes: PDL1-1 nanobody fused with murine IL-12; two plasmids co-transfected 1:1; also called mP35-6his + P1-mP40
B22: Fusion 1 (other, murine)
chain 1: RVIPVSGPARCLSQSRNLLKTTDDMVKTAREKLKHYSCTAEDIDHEDITRDQTSTLKTCLPLELHKNESCLATRETSSTTRGSCLPPQKTSLMMTLCLGSIYEDLKMYQTEFQAINAALQNHNHQQIILDKGMLVAIDELMQSLNHNGETLRQKPPVGEADPYRVKMKLCILLHAFSTRVVTINRVMGYLSSAGGGGSGGGGSGGGGSQVQLQESGGGLVQPGGSLTLSCAASGFTVSNSAVSWARQAPGKGLEWVSLIDSNRNTVYAQSVRGRFTISRDNVKNTVYLQMNSLKPEDTAVYYCAKGIWGSTLTGQGTQVTVSSHHHHHHHH
chain 2: MWELEKDVYVVEVDWTPDAPGETVNLTCDTPEEDDITWTSDQRHGVIGSGKTLTITVKEFLDAGQYTCHKGGETLSHSHLLLHKKENGIWSTEILKNFKNKTFLKCEAPNYSGRFTCSWLVQRNMDLKFNIKSSSSSPDSRAVTCGMASLSAEKVTLDQRDYEKYSVSCQEDVTCPTAEETLPIELALEARQQNKYENYSTSFFIRDIIKPDPPKNLQMKPLKNSQVEVSWEYPDSWSTPHSYFSLKFFVRIQRKKEKMKETEEGCNQKGAFLVEKTSTEVQCKGGNVCVQAQDRYYNSSCSKWACVPCRVRS
notes: PDL1-1 nanobody fused with murine IL-12; two plasmids co-transfected 1:1; also called mP35-P1-8his + mP40
B23: Fusion 3 (other, murine)
chain 1: QVQLQESGGGLVQPGGSLTLSCAASGFTVSNSAVSWARQAPGKGLEWVSLIDSNRNTVYAQSVRGRFTISRDNVKNTVYLQMNSLKPEDTAVYYCAKGIWGSTLTGQGTQVTVSSGGGGSGGGGSGGGGSRVIPVSGPARCLSQSRNLLKTTDDMVKTAREKLKHYSCTAEDIDHEDITRDQTSTLKTCLPLELHKNESCLATRETSSTTRGSCLPPQKTSLMMTLCLGSIYEDLKMYQTEFQAINAALQNHNHQQIILDKGMLVAIDELMQSLNHNGETLRQKPPVGEADPYRVKMKLCILLHAFSTRVVTINRVMGYLSSAHHHHHHHH
chain 2: B22 chain 2
notes: PDL1-1 nanobody fused with murine IL-12; two plasmids co-transfected 1:1; also called P1-mP35-8his + mP40

Where a chain is given by its changes, count along the chain named. “And” between values parts separate entries of the source, which are not always exact repeats. Identical values can stand only once.

T1 sequence (chain, as listed by the source limits assumed): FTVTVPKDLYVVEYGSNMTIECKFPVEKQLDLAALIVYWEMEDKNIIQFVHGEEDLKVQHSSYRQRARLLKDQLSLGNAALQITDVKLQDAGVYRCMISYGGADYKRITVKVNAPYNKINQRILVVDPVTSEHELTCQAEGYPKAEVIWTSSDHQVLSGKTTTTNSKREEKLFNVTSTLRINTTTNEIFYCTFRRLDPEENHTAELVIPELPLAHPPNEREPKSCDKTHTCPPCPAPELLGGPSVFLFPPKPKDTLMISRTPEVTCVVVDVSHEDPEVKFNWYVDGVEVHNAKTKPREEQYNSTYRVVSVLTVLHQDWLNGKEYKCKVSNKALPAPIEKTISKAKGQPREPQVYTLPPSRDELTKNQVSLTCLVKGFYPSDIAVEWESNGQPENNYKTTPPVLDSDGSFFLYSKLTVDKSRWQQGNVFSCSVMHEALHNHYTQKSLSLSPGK
T2 sequence (Q9NZQ7 19-290): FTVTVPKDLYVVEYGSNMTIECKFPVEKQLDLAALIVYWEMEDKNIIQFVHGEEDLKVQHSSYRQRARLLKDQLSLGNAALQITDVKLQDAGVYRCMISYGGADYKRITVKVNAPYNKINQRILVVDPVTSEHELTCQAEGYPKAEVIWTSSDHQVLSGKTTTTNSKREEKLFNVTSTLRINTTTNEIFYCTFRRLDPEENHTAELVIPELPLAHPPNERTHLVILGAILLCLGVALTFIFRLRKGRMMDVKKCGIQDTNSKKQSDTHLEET
T3 sequence (Q9NZQ7 19-238 limits assumed): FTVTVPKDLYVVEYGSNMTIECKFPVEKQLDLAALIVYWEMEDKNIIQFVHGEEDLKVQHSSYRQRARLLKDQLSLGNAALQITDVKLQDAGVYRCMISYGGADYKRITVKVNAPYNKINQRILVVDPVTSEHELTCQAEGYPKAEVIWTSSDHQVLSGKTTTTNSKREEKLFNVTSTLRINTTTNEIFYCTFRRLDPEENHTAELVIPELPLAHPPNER

The first assay has as its target T1, human PDL1-Fc fusion protein (human).
T1 construct: also called human PDL1-Fc recombinant protein
Description: ELISA, human PDL1-Fc coated 200 ng/well, anti-His HRP. For orientation: In an ELISA, binding on a coated surface is turned into a signal by an enzyme label.
For the molecule B1, a half-maximal effect (EC50) was put at 0.0275 µg/mL.
The same measure, in the same setting: for B2 the value was 0.0336 µg/mL; for B3, 0.0505 µg/mL; for B4, around 110 µg/mL.
The same measure, in the same setting: for B5 the value was 0.0108 µg/mL.

Another assay addresses T1, human PDL1-Fc fusion protein. The description is as above. This is another data set of the same source.
The molecule B6 showed an EC50 of 0.0182 µg/mL.
The same measure, in the same setting: for B7 the value was 0.0591 µg/mL; for B8, 1.24 µg/mL; for B9, 0.0461 µg/mL.
The same measure, in the same setting: for B10 the value was 0.0484 µg/mL.
The same measure, in the same setting: to B11 belongs 0.875 µg/mL; to B12, 0.0664 µg/mL.

Another assay has the same target. The description is as above. This is another data set of the same source.
Molecule B13 showed an EC50 of 0.0432 µg/mL.
As for B14, a half-maximal response (EC50) required 0.02 µg/mL.
The molecule B7 returned an EC50 of 0.0423 µg/mL.
The same measure, in the same setting: to B15 belongs 0.0342 µg/mL.
B16 returned an EC50 of 0.0629 µg/mL.

A further assay has the same target. Described as above. This is another data set of the same source.
The molecule B1 showed an EC50 of 0.0251 µg/mL.
On to B17, for which the EC50 stood at 0.028 µg/mL.
On the same count and under the same terms, for B18 the value was 0.026 µg/mL; for B19, 4 µg/mL.

For a further assay the target is unchanged. The assay is described as above. This is another data set of the same source.
On to B20, for which the EC50 is 4.1 µg/mL and 54.3 nM.
Still for that read-out and setting: for B21 the value was 0.75 µg/mL and 9.91 nM; for B22, 0.373 µg/mL and 4.93 nM; for B23, 0.251 µg/mL and 3.33 nM.

The next assay concerns the target T2, human PD-L1 expressed on Raji cells (human, UniProt Q9NZQ7 19-290).
T2 construct: whole, on cells; also called Raji-PDL1; PDL1 protein expressed on Raji cells
The experiment in a line: flow cytometry competition on Raji-PDL1 cells, competitor PD1-Fc. In general terms: A flow cytometer gives signals particle by particle.
The molecule B6 showed a half-maximal inhibitory concentration (IC50) of 0.694 µg/mL.
The same measure, in the same setting: to B14 belongs 2.48 µg/mL; to B15, 4.58 µg/mL.
Still for that read-out and setting: for B10 the value was 2.59 µg/mL.
B5 showed an IC50 of 0.458 µg/mL.

The next assay concerns the target T3, recombinant protein PD-L1-His (human, UniProt Q9NZQ7 19-238).
T3 construct: also called PD-L1-his fusion protein; human PDL1-his protein
Description: competitive ELISA, PDL1-his coated, competitor PD1-Fc 50 µg/mL.
For B6, the IC50 is 5.22 µg/mL.
Same read-out and setting: to B14 belongs 31.1 µg/mL; to B15, 37.1 µg/mL; to B10, 18.8 µg/mL.
Same read-out and setting: for B5 the value was 5.58 µg/mL.

The target in another assay is T1, human PDL1-Fc fusion protein. The experiment in a line: BLI (ForteBIO Octet QKe), PDL1-Fc loaded, analyte 100 nM. For orientation: BLI is a label-free optical method that tracks binding on a fibre tip over time.
The molecule B13 registered a Kd of 10.8 nM.
With B6, binding was put at a Kd of 4.16 nM.
Same read-out and setting: to B1 belongs 13.1 nM; to B14, 5.86 nM; to B2, 18.5 nM.
B7 showed a Kd of 14.3 nM.
In the case of B17, binding was characterised by a dissociation constant (Kd) of 10.9 nM.
The molecule B15 had a Kd of 7.37 nM.
B8: binding was put at a Kd of 389 nM.
Still for that read-out and setting: for B18 the value was 12.1 nM; for B9, 11.4 nM; for B3, 22.1 nM.
On the same count and under the same terms, to B4 belongs 30.5 nM; to B10, 9.86 nM; to B5, 5.9 nM.
Same read-out and setting: for B11 the value was 32.5 nM.
The molecule B19 came in with a Kd of 1320 nM.
On the same count and under the same terms, for B16 the value was 14.3 nM; for B12, 10.2 nM.
